The values below come from publication PMC10720262 (Cell Reports, 2023).

This test has as its target recombinant full-length PfCSP (Plasmodium falciparum circumsporozoite protein, strain NF54) (Plasmodium falciparum NF54, UniProt P19597).

Chain of recombinant full-length PfCSP (Plasmodium falciparum circumsporozoite protein, strain NF54) (P19597 20-375): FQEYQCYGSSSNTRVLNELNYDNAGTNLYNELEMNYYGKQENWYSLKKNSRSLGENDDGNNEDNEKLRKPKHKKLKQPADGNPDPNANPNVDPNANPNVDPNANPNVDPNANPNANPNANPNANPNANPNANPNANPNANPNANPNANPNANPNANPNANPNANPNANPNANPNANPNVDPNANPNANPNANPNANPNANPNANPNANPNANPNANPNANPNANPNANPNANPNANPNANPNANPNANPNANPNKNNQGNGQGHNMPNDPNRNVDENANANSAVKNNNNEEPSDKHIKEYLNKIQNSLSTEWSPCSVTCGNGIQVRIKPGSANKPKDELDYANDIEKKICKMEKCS

B1: CL-513809 (antibody, V domains shown)
VH: QVQLVESGGGVVQPGRSLRLSCAASGFIFSNYGMYWVRQTPDKGLEWVALIWYDGNNKFYSDSVKGRFTVSRDNSKNTLYLQMNSLRDEDTALYYCARAGYFYGSGSSLDKWGQGTLVTVSS
VL: DIQMTQSPSTLSASVGDRVSITCRASQSISIWLAWYQQKPGKAPKLLIYKASSLESGVPSRFSGSGSGTEFTLTISSLQPDDFATYYCQQYNSYWTFGQGTKVEIK
With B1, the binding result is on record as “binds”.

B2: CL-531912 (antibody, V domains shown)
VH: LVQLVESGGGVVQPGRSLRLSCAASGFTFSSSGMHWVRQAPGKGLEWVAIIWYDGSNKFYADSVKGRFTISRDNSKNTLYLQMNSLRAEDTAVYYCARAYVSGSHGDKYGMDVWGQGTTVTVSS
VL: DIQMTQSPSTLSASVGDRVTITCRASQSISSWLAWFQQKPGKAPKLLIYKASSLESGVPSRFSGSGSGTEFTLTINSLQPDDFATYFCQQYNNYWTFGQGTKVEIK
On to B2, for which the binding result was “binds”.

B3: CL-532061 (antibody, V domains shown)
VH: QVQLVESGGGVVQPGRSLRLSCVASRFTFSNYGMHWVRQTPGKGLEWVAIIWYDGSNKFYGDSVKGRFTISRDNSRNTLYLQMNNLRAEDTAVYYCARAYDDFVDHDKYGMDVWGQGTTVTVSS
VL: DIQMTQSPSTLSASVGDRVTISCRASQSISIWLAWYQQKSGKAPKLLIYKASRLESGVPSRFSGSGSGTEFTLTISSLQPDDFATYYCQQYNSYWTFGQGTKVEIK
Turning to B3, the binding result is on record as “binds”.

B4: CL-515284 (antibody, V domains shown)
VH: QVQLVGSGGGVVQSGRSLRLSCAASGFTFSNFGMHWVRQTPDKGLEWLAIIWYDGSHKFYVDSVKGRFTISRDNSMNTLFLQMNSLRAEDTGVYYCVRSWNYADSKYGMDVWGQGTTVTVSS
VL: DIQMTQSPSTLSASVGDRVTITCRASQSISSWLAWYQQKPGKAPNLLIYKASSLESGVPSRFSGSGSGTEFTLTISSLQPDDFATYYCQQYYNYWTFGQGTKVEIK
B4: the binding result is on record as “binds”.

B5: CL-531969 (antibody, V domains shown)
VH: QVQLVESGGGVVQPGRSLRLSCAASGFTFSSSGMHWVRQAPGMGLEWVAIIWYDGSNKFYADSVKGRFTISRDNSKNTLYLQMNSLRAEDTAVYYCARAYVSGNYGDNYGMDVWGQGTTVTVSS
VL: DIQMTQSPSTLSASVGDRVTITCRASQSISSWLAWFQQKPGKAPKLLIYKASSLESGVPSRFSGSGSGTEFTLTINSLQPDDFATYFCQQYNYYWTFGQGTKVEIK
With B5, the binding result is recorded as “binds”.

B6: CL-514174 (antibody, V domains shown)
VH: QVQLVESGGGVVQPGRSLRLSCVASGFTFSGSGMHWVRQSPGKGLEWVAIIWYDGSNKFYADSVQGRFTISRDNSKNTLYLQMNSLRVEDTGVYYCARAYLSGNYGDKYGMDVWGQGTTVTVSS
VL: DIQMTQSPSTLSASVGDRVTITCRASQSISSWLAWFQQKPGKAPKLLIYKASSLESGVPSRFSGSGSGTEFTLTINSLQPDDFATYFCQQYNYYWTFGQGTKVEIK
As to B6, the binding result is given as “binds”.

B7: CL-514146 (antibody, V domains shown)
VH: QVQLVESGGGVVQPGRSLRLSCAVSGFTFSNSGMHWVRQAPGKGLEWVAIIWYDGNNKFYADSVKGRFTISRDNSKNTLYLQMNSLRAEDTSIYYCARAYPSGNYGDKYGMDVWGQGTTVTVSS
VL: DIQMTQSPSTLSASVGDRVTITCRASQSISSWLAWFQQKPGNAPKLLIYKASSLESGVPSRFSGSGSGTEFTLTINSLQPDDFATYYCQQYNSFWTFGQGTKVEIK
B7: the binding result was “binds”.

B8: CL-531383 (antibody, V domains shown)
VH: QVQLVESGGGVVQPGRSLRLSCAASGFTFSSFGMHWVRQTPVKGLEWVALIWYDGSHKFYADSVRGRFIISRDNSKNTLFLQMNSLRAEDTAIYYCAKVINYGSGNYYNNYKYTMDVWGQGTTVTVSS
VL: DIQMTQSPSTLSASVGDRVTITCRASQSISSWLAWYQQKPGKAPKVLIYKASSLESGVPSRFSGSGSGTEFTLTISSLQPDDFATYYCQQYNTYWTFGQGTKVEIK
As to B8, the binding result is “binds”.

B9: CL-531271 (antibody, V domains shown)
VH: QVQLVESGGGEVQPGRSLRLSCAASGFTFSNYGMHWVRQAPGKGLEWVALIWYDGNNKFYADSVNGRFTISRDNSNNTLYLQMNSLRAEDTGVYYCARSFYYVSGNFFDYWGQGTLVTVSS
VL: DIPMTQSPSSVSASVGDRVTITCRASQGISTWLAWYQQKPGKAPKFLIYAASSLQSGVPSRFSGSGSGTDFTLTIYSLQPEDFATYYCQQGNSFPWTFGQGTKVEIK
On to B9, for which the binding result is on record as “binds”.

B10: CL-531237 (antibody, V domains shown)
VH: QVQLVESGGGVVQPGTSLRLSCVASGFTFSNFGIHWFRQAPGKGLEWVSLIWYDGKNKFYAESVTGRFTISRDNSKNTVYLQMSSLRAEDTAVYYCARSYYYDSGNYFDYWGQGTLVTVSS
VL: DIQMTQSPSSVSASVGDRITITCRASQGISSRLAWFQQKPGKAPNFLIYGTSSLQSGVPSRFSGSGSGTDFTLTISSLQPEDSATYYCQQANSYPWTFGQGTKVEIK
On to B10, for which the binding result is recorded as “binds”.

B11: CL-531325 (antibody, V domains shown)
VH: QVHLVESGGGVVQPGKSLRLSCAASGFTFSNFGMHWVRQAPGKGLEWVALIWYDGSHKFYADSVQGRFTISRDNSKNTLFLQMNSLRAEDTAIYYCAKVISYGSVNYYNNYKYTMDVWGQGTTVTVSS
VL: not shown
Consider B11, for which the binding result is “binds”.

B12: CL-513808 (antibody, V domains shown)
VH: QVQLVESGGGVVQPGRSLRLSCAASGFTFSNYGMHWVRQAPGKGLEWVAIIWYDGSNKFYADSVKGRFTISRDNSKNTLYLQMNSLRAEDTAVYYCARDDRGHSYGPYFDFWGQGTLVTVSS
VL: EIVMTQSPATLSVSPGERATLSCRASQSVSSNLAWYQQKPGQAPRLLIYGASIRATGIPARFSGSGSGTEFTLTISILQSEDFAVYYCQQCNNWPWTFGQGTKVEIK
As to B12, the binding result was “binds”.

B13: CL-515341 (antibody, V domains shown)
VH: QVYLVESGGGVVQPGKSLRLSCAASGFTFSNYGMHWVRQAPGKGLEWVAIIWHDGSNKFYSDSVRGRFTISRDNSQNTLYLQMNSLSAEDTALYFCAKDIGYSNTWDYFDYWGQGTLVTVSS
VL: EIVLTQSPATLSLSPGERATLSCRASQSVNSFLAWYQQKPGQAPRLLIYDASNRATDIPDRFSGSGSGTDFTLTIRSLEPEDFAVYFCQQRSKWFTFGGGTTVEMK
Consider B13, for which the binding result was “binds”.

B14: CL-514716 (antibody, V domains shown)
VH: QIQLVESGGGVVQPGRSLRLSCAASGFTFSTYGMHWVRQAPGKGLEWVAVIWYDGSNKYYADSVQGRFTISRDNSKNTLYLQMNSLRAEDTAIYYCTTVGPIPFDYWGQGTLVTVSS
VL: DIVMTQTPLSSPVILGQPASISCRSSQSLVHSSGNTYLSWLQQRPGQPPRLLIYKTFKRLSGVPDRFSGSGAGTDFTLKISRVEAEDVGVYYCLQSTQFPLTFGGGTKVEIK
In the case of B14, the binding result is recorded as “binds”.

B15: CL-531286 (antibody, V domains shown)
VH: QVQLVESGGGLVQPGRSLRLSCAASGFTFSSSGMHWVRQAPGKGLEWVAVIWYDGSNKFYADSVKGRFTISRDNSKNTLYLQMNSLRAEDTAVYYCARSGYDILTGYFNFFDPWGQGTLVTVSS
VL: EIVLTQSPGTLSLSPGERATLSCRASQSVSSSHLAWYQQKPGQAPRLLIYGASSRATGIPDRFSGSGSGTDFTLTISRLEPEDFAVYYCHQYVSSFTFGPGTKVDFK
B15: the binding result is “binds”.
